The values that follow come from patent CN106928350A (TIANJIN INST IND BIOTECHNOLOGY CAS; SUZHOU GENEWIZ …, dated 2017).

The target in assay [1] is T1, HA of A/PuertoRico/8/1934 H1N1 (Influenza A virus A/PuertoRico/8/1934 …, UniProt P03452 18-565).
T1 construct: whole, on cells; also called PR8
Put plainly: immunofluorescence on virus-infected MDCK cells.

Assay [2] deals with T2, HA of H4 (A/duck/Czech/1956)/PR8 H4N1 (PR8-RS) (Influenza A virus A/duck/Czech/1956 (H4), UniProt P19696 17-564).
T2 construct: whole, on cells
Description: immunofluorescence on virus-infected MDCK cells, antibody 40μg/mL.

B1: AF4H1K1 (antibody, V domains shown)
VH: QVQLVESGGGVVQPGTSLRLSCEASGFTSSAYAMHWVRQAPGKGLEWVAVITFDGGYQYYADSVKGRFTISRDISRNTLHLHMNSLRAEDTAVYYCARDPLTKLLPFDWVSGGYFDYWGQGTLVTVSS
VL: not shown
notes: also called AF4H1K1 IgG; AF4H1K1IgG
In the case of B1, the binding result was “no binding (tested: 40μg/mL)” in assay [1] and “binds” in assay [2].
